In patent US20130078237A1 (Amgen, published 2013):
Substitutions are numbered along the chain they refer to. In names and notes the source's numbering stands.

T1: human CD27L on the surface of cells (human, UniProt P32970 1-193)
T1 sequence: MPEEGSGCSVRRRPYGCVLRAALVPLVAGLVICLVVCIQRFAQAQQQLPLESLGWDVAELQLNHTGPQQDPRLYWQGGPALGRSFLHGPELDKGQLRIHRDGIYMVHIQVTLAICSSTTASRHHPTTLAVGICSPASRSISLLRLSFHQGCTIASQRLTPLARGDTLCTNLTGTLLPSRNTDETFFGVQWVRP

T2: Histidine-tagged human soluble CD27L (human, UniProt P32970 39-193)
T2 construct: also called Hu CD27L-his; soluble human CD27L-his; not shown: histidine tag
T2 sequence: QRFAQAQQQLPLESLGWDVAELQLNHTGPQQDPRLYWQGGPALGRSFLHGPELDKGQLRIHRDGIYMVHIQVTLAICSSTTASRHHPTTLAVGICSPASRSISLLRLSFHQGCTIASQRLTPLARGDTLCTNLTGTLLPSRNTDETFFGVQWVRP

T3: CD27L bound to Maxisorp plates (Homo sapiens (Human), UniProt P32970 39-193, limits assumed)
T3 sequence: T2 sequence

T4: cynomolgus monkey CD27L (cynomolgus monkey, UniProt A0A2K5WTU9 39-190)
T4 construct: also called cynomolgus CD27L
T4 sequence: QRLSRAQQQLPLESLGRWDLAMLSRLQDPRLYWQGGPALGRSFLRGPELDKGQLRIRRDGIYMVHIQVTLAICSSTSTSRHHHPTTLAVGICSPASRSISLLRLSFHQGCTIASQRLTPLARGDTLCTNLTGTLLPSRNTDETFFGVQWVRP

B1: Ab4-MCC-DM1 (antibody, human IgG1, kappa, V domains shown)
VH: QVQLVESGGGVVQPGRSLRLSCAASGFTFSNYGIHWVRQAPGKGLEWVAVIWYDGSNKYYADSVKGRFTISRDNSKNTLYLQMNSLRAEDTAVYYCARDGGYSGYDSGFDYWGQGTLVTVSS
VL: DIVMTQSPLSLPVTPGEPASISCRSSQSLLNSNGYNYLDWYLQKPGQSPQFLIYLGSYRASGVPDRFSGSGSGTDFTLRISRVEAEDVGVYYCIQTLQTPFTFGPGTKVDIKR
modifications: DM1 linked through MCC (SMCC) to lysine residues; 4.5-5.0 DM1 molecules per antibody on average, sites not given
notes: also called Ab4 antibody drug conjugate; conjugated Ab4
B2: Ab8-MCC-DM1 (antibody, human IgG1, kappa, V domains shown)
VH: QVQLVESGGGVVQPGRSLRLSCAASGFTFSSYGMHWVRQAPGKGLEWVAVIWYDGSDKYFADSVKGRFTISRDNSKNTLYLQMNSLRAEDTAVYYCARDGIAGARYVYFDYWGQGTLVTVSS
VL: DIQMTQSPSSLSASVGDRVTITCRASQGISNYLAWFQQKPGKAPKSLIYAASSLQGGVPSKFSGSGSGTDFTLTISSLQPEDFATYYCQQYYNYPFTFGPGTTVDIKR
notes: also called Ab8 antibody drug conjugate; conjugated Ab8
B3: Ab4 (antibody, human IgG1, kappa, V domains shown)
VH: B1 VH
VL: B1 VL
notes: Fully human IgG1; also called A4; unconjugated parental Ab4
B4: Ab8 (antibody, human IgG1, kappa, V domains shown)
VH: B2 VH
VL: B2 VL
notes: also called A8; unconjugated Ab8
B5: Ab7 (antibody, human IgG1, lambda, V domains shown)
VH: QVQLVESGGGVVQPGRSLRLSCAASGFTFSTYGMHWVRQAPGKGLEWVAVIWYDGSNKYYGDSVKGRFTISRDNSKNTLYLQMNSLRAEDTAVYYCARDNSHYYYGMDVWGQGTTVTVSS
VL: QSVLTQPPSVSGAPGQRVTISCTGSSSNIGAGYDVNWYQQFPGTAPKLLIYVNNNRPSGVPDRFSGSTSGTSASLAITGLQAEDEADYYCQSYDTSLSASVFGGGTRLTVLG
notes: Fully human IgG1 from XenoMouse hybridoma
B6: Ab6 (antibody, human IgG1, lambda, V domains shown)
VH: QVQLVQSGAEVKKPGASVKVSCKASGYTFTSYGISWVRQAPGQGLEWMGWISAYNGYTHYAQKLQGRVTMTTDTSTSTAYMELRSLRSDDTAVYYCARDYGGNDYYGMDVWGQGTTVTVSS
VL: QSVLTQPPSASGTPGQRVTISCSGSSSNIGINYVYWYQQLPGTAPKLLIYRSDQRPSGVPDRFSGSKSGTSASLALSGLRSEDEADYYCAAWDDSLSGVVFGGGTKLTVLG
notes: as for B5
B7: Ab3 (antibody, IgG1, V domains shown)
VH: EVQLLESGGGLVQPGGSLRLSCAASGFTFSSYAMSWVRQAPGKGLEWVSVISDSGGTTDYADSVKGRFTISRDNSKNTLYLQMNSLRAEDTAVYYCARHDYSNRYYFDYWGQGTLVTVSS
VL: EIVLTQSPGTLSLSPGERATLSCRASQSFSSNYLAWYQQKPGQAPRLFIYGASSRATGIPDRFSGSGSGTDFTLTISRLEPEDFAVYFCQQYGISPCSFGQGTKLEIK
notes: Tested as hybridoma supernatant
B8: Ab5 (antibody, human IgG1, kappa, V domains shown)
VH: QVQLVQSGAEVKKPGASVKVSCKASGYTFTSYDINWVRQATGQGLEWMGWMNPNSGNTGYAQKFQGRVTMTRNTSISTAYMELSSLRSEDTAVYYCARGYDFWSGYYYYYYGMDVWGQGTTVTVSS
VL: EIVLTQSPGTLSLSPGERATLSCRASQSVSSSYLAWYQQRPGQAPRLLIYGASSRATGIPDRFSGSGSGTDFTLTISSLEPEDFAVYYCLQSGSSVPLTFGGGTKVEIKR
notes: as for B5
B9: Ab1 (antibody, human IgG1, kappa, V domains shown)
VH: QMQLQESGPGLVKPSQTLSLTCTVSDGSIISGVYYWSWIRQHPGKGLEWIGYIYYSGSTSYNPSLKSRLTMSVDTSKNQFSLKLSSVTAADTAVYYCARSGYSYALFDYWGQGTLVTVSS
VL: DIQMTQSPSSLSASLGDRVTITCRASQSVDRYFNWYQQKPGKAPKVLIFAASSLQSGVPSRFGGSGSGTDFTLTISSLQPEDFATYYCQQSYSTPWTFGQGTKVEVKR
notes: as for B5
B10: Ab2 (antibody, human IgG1, kappa, V domains shown)
VH: B9 VH with M2V, D26G, G27D, V33G, Y54F, S60D, L69V, M71I, Y109H
VL: DIQMTQSPSSLSASVGDRVTISCRASQFIGRYFNWYQQQPGKAPKVLIYAESSLQSGVPSRFSGSGSGTEFTLTISSLQPEDFARYYCQQSYSTPWTFGQGTKVEIKR
notes: as for B5
B11: Ab4 variant Parent LC + S103G-G104S (antibody, V domains shown)
VH: B1 VH with S103G, G104S
VL: DIVMTQSPLSLPVTPGEPASISCRSSQSLLNSNGYNYLDWYLQKPGQSPQFLIYLGSYRASGVPDRFSGSGSGTDFTLRISRVEAEDVGVYYCIQTLQTPFTFGPGTKVDIK
notes: Rest as Ab4 (IgG1)
B12: Ab4 variant Parent LC + G33S-I34L (antibody, V domains shown)
VH: B1 VH with G33S, I34L
VL: B11 VL
notes: Rest as Ab4 (IgG1)
B13: Ab4 variant Q95N-T96S + S103G-G104S (antibody, V domains shown)
VH: B1 VH with S103G, G104S
VL: B11 VL with Q95N, T96S
notes: Rest as Ab4 (IgG1)
B14: Ab4 variant Q95N-T96S + G33S-I34L (antibody, V domains shown)
VH: B1 VH with G33S, I34L
VL: B11 VL with Q95N, T96S
notes: Rest as Ab4 (IgG1)
B15: Ab4 variant L55I-Y58F + G33S-I34L (antibody, V domains shown)
VH: B1 VH with G33S, I34L
VL: B11 VL with L55I, Y58F
notes: Rest as Ab4 (IgG1)
B16: Ab4 variant R24K-S26G + G33S-I34L (antibody, V domains shown)
VH: B1 VH with G33S, I34L
VL: B11 VL with R24K, S26G
notes: Rest as Ab4 (IgG1)

Molecular target: T1, human CD27L on the surface of cells
Experiment: cell-based or functional assay

Question: With B1 as the binder, how does the “786-0-IC50, Antibody Conc. (nM); cell growth inhibition, CellTiter-Glo, 4 days” value read?
Answer: 0.07 nM

Question: What about the “786-0-IC50, Drug Conc. (nM); cell growth inhibition, CellTiter-Glo, 4 days” value of the same binder?
Answer: 0.34 nM

Question: B2 was tested. Which “786-0-IC50, Antibody Conc. (nM); cell growth inhibition, CellTiter-Glo, 4 days” value did it give?
Answer: 0.11 nM

Question: And the “786-0-IC50, Drug Conc. (nM); cell growth inhibition, CellTiter-Glo, 4 days” value?
Answer: 0.54 nM

Molecular target: T1, human CD27L on the surface of cells
Experiment: flow cytometry (FACS) on 786-0 cells

Question: How did the EC50 turn out when B1 was run?
Answer: 0.1 nM

Question: How did the EC50 turn out when B3 was run?
Answer: 0.1 nM

Question: B2 was tested. Which EC50 did it give?
Answer: 0.08 nM

Question: For B4, which EC50 is on record?
Answer: 0.02 nM

Molecular target: T1, human CD27L on the surface of cells
Experiment: cell-based or functional assay
Remark: another data set of the same source

Question: Which “ADCC against Raji cells, EC50 (calcein release, NK effectors)” value does the source give for B1 here?
Answer: 6 ng/mL

Question: With B3 as the binder, how does the “ADCC against Raji cells, EC50 (calcein release, NK effectors)” value read?
Answer: 10 ng/mL

Molecular target: T1, human CD27L on the surface of cells
Experiment: binding to cells with native human CD27L (column 'Native cell Avidity EC50 nM'); cell line and method not stated for the figure

Question: B3 was tested. Which EC50 did it give?
Answer: 0.25 nM

Question: How did the EC50 turn out when B5 was run?
Answer: 0.18 nM

Question: How did the EC50 turn out when B6 was run?
Answer: 0.87 nM

Question: Which EC50 does the source give for B7 here?
Answer: 4.18 nM

Question: B8 was tested. Which EC50 did it give?
Answer: 0.66 nM

Question: B9 was tested. Which EC50 did it give?
Answer: 0.32 nM

Question: How did the EC50 turn out when B10 was run?
Answer: 0.24 nM

Question: How did the EC50 turn out when B4 was run?
Answer: 0.09 nM

Molecular target: T2, Histidine-tagged human soluble CD27L
Experiment: BIACORE 3000, antibody captured by goat anti-human IgG on a CM5 chip, Hu CD27L-his as analyte (column 'Affinity Hu Biacore KD nM')
Procedure: Affinity for recombinant soluble human CD27L was determined using a CM5 chip on a BIACORE 3000. Goat anti-human IgG antibody was used to capture the test antibody. Binding and dissociation of Histidine-tagged human soluble CD27L was measured to determine Kₐ, Kₐ, and KD.

Question: How did the Kd turn out when B3 was run?
Answer: 3.05 nM

Question: Which Kd does the source give for B5 here?
Answer: 0.71 nM

Question: B6 was tested. Which Kd did it give?
Answer: 6.06 nM

Question: With B7 as the binder, how does the Kd read?
Answer: 4.35 nM

Question: How did the Kd turn out when B8 was run?
Answer: 10.4 nM

Question: With B9 as the binder, how does the Kd read?
Answer: 0.62 nM

Question: How did the Kd turn out when B10 was run?
Answer: 0.59 nM

Question: B4 was tested. Which Kd did it give?
Answer: 10.8 nM

Molecular target: T1, human CD27L on the surface of cells
Experiment: cell-based or functional assay
Remark: another data set of the same source

Question: Which results are given for B1?
Answer: ADCP, 786-0 EC50 (pM): 0.087 pM; ADCP, Raji EC50 (pM): 1.42 pM

Question: With B3 as the binder, how does the “ADCP, 786-0 EC50 (pM)” value read?
Answer: 0.008 pM

Question: What about the “ADCP, Raji EC50 (pM)” value of the same binder?
Answer: 0.008 pM

Molecular target: T3, CD27L bound to Maxisorp plates
Experiment: ELISA on plate-bound CD27L; abolished = no curve could be generated or max signal less than 5%
Procedure: CD27L was bound to Maxisorp plates at room temperature for >2 hours, shaking with lug/mL in 100 uL. The plates were then blocked with 250 uL 10% Non-fat dry milk in PBS+0.05% Tween 20 for 2 hours. After a 4×300 uL PBS+0.05% Tween20 (PBST) wash the modified Ab and purified parental control titrations ranging from 0.045 to 100 ng/mL were applied to the plates and incubated for 1 hour. A horseradish peroxidase conjugated αhuFc detection antibody (Jackson) diluted 1:7000 was applied to the plates after another PBST wash, and incubated for 1 hour. A final wash was performed and TMB substrate was incubated for 10 minutes and stopped with phosphoric acid. An OD reading at 450 nm was taken and plotted vs. concentration. These curves were then analyzed with a 3 parameter non linear curve fit and the EC₅₀ and Max calculated signal were compared to the purified control. Binding was determined to be similar to parental if the EC₅₀ was within 2 fold and the Max signal was greater than 50%. The binding was reduced if the EC₅₀ increased greater than 2 fold and/or the max signal was less than 50%. The binding was abolished if no curve could be generated or the max signal was less than 5%.

Question: Does B11 bind?
Answer: no binding

Question: Does B12 bind?
Answer: no binding

Question: Does B13 bind?
Answer: no binding

Question: Does B14 bind?
Answer: no binding

Question: Does B15 bind?
Answer: no binding

Question: Does B16 bind?
Answer: no binding

Molecular target: T1, human CD27L on the surface of cells
Experiment: flow cytometry on 786-0 cells, reference Ab8

Question: B2 was tested. Which “fold change of binding EC50 against Ab8” value did it give?
Answer: 4 fold

Molecular target: T1, human CD27L on the surface of cells
Experiment: Gyros, native human CD27L on Raji cells

Question: B1 was tested. Which Kd did it give?
Answer: 0.023 nM

Question: With B3 as the binder, how does the Kd read?
Answer: 0.014 nM

Question: Which Kd does the source give for B2 here?
Answer: 0.077 nM

Question: For B4, which Kd is on record?
Answer: 0.078 nM

Molecular target: T4, cynomolgus monkey CD27L
Experiment: binding to cynomolgus CD27L (column 'Cyno Avidity EC50 nM'); method not stated for the figure

Question: How did the EC50 turn out when B3 was run?
Answer: 0.48 nM

Question: B5 was tested. Which EC50 did it give?
Answer: 0.43 nM

Question: With B6 as the binder, how does the EC50 read?
Answer: 0.87 nM

Question: Which EC50 does the source give for B8 here?
Answer: 1.4 nM

Question: Which EC50 does the source give for B4 here?
Answer: 0.34 nM
